Sequences and labels used below:
B1: GST-Bim1^185–344 (domain or fragment, budding yeast, UniProt P40013 185-344, looked up)
chain: IQAELTKSQETIGSLNEEIEQYKGTVSTLEIEREFYFNKLRDIEILVHTTQDLINEGVYKFNDETITGHGNGNGGALLRFVKKVESILYATAEGFEMNDGEDELNDKNLGEHGTVPNQGGYANSNGEVNGNEGSNHDVIMQNDEGEVGVSNNLIIDEETF
notes: also called C-terminal EB homology domain of Bim1; source: recombinant; expressed and purified as described previously (Zimniak et al., 2009)
B2: GST-Bim1^FL (natural protein, budding yeast, UniProt P40013 1-344, looked up)
chain: MSAGIGESRTELLTWLNGLLNLNYKKIEECGTGAAYCQIMDSIYGDLPMNRVKFNATAEYEFQTNYKILQSCFSRHGIEKTVYVDKLIRCKFQDNLEFLQWLKKHWIRHKDESVYDPDARRKYRPIITNNSATKPRTVSNPTTAKRSSSTGTGSAMSGGLATRHSSLGINGSRKTSVTQGQLVAIQAELTKSQETIGSLNEEIEQYKGTVSTLEIEREFYFNKLRDIEILVHTTQDLINEGVYKFNDETITGHGNGNGGALLRFVKKVESILYATAEGFEMNDGEDELNDKNLGEHGTVPNQGGYANSNGEVNGNEGSNHDVIMQNDEGEVGVSNNLIIDEETF
notes: Bim1, the EB1 homologue of budding yeast, full length; also called full-length Bim1; source: recombinant; expressed and purified as described previously (Zimniak et al., 2009)
B3: Bim1 (as used in analytical size exclusion chromatography) (natural protein, budding yeast, UniProt P40013 1-344, looked up)
chain: B2 chain
notes: Bim1, the EB1 homologue of budding yeast; source: recombinant; expressed and purified as described previously (Zimniak et al., 2009)
B4: Cik1-1xFLAG (full-length Cik1, aa 1–594) (natural protein, S. cerevisiae (S288c), UniProt Q01649 1-594, looked up)
chain: MNNSKIPKLSFHSDPNNVTRDFPKTKRQKVQKREMDMILTPNNNKLNILHSSGSGIRRCYTDDTSATYTKKLTFGGDPKIIERVKNNERKVRKDIDSLLNAISEIEKESVRIHARELPAITLELDAKVKACRELQNEIDGLSTEMDLKDNQCDLQRKNVELSSKNIVSMHAVKVQEFENDLEEELSNAKREWTYKLMEVENLKPDERLTDEMRQLKTEFEEVNRKLFILQNENENECKNYKKELDKKFEIFKKVKNDARIELDGEQERLSKVLKDLQDTHGELKENIKTCRDEFNDFEKRIGEAEVNFHSMELAVVPLKKKLASTSQALTQVQEEKKQVEGEANNWKKKYVNELEKVQQELYTRQNLATSIEEIKGYTRCFAYANERQMPDEFHINYVDRCICENSGEKRVQVFDRVVLEEIHKDHKRLYNECIPFLEKYISKLINCSIIVVSQQPTAPMKKTLLKQLIEQYGENYKMTLNILHLDGSIKHSDVGLDNPTEIRDLSQDEECMNILTLDTKLGKDEESHSMNIYIGSMSTVQLNRELDDAPSVLSHILTKTKQCFVFKINAGENIEKALALAGKLKRTITLPQLD
notes: source: if needed MonoS; not shown: 1xFLAG, C-terminal, kept
B5: Cik1–Kar3 heterodimer (full-length Cik1-1xFLAG with Halo-Kar3) (complex, S. cerevisiae (S288c))
chain 1: MESLPRTPTKGRSTQHLSTPSPKNDILAMNGHKRRNTTTPPPKHTLLKPQRTDIHRHSLASQSRISMSPNRELLKNYKGTANLIYGNQKSNSGVTSFYKENVNELNRTQAILFEKKATLDLLKDELTETKEKINAVNLKFETLREEKIKIEQQLNLKNNELISIKEEFLSKKQFMNEGHEIHLKQLAASNKKELKQMENEYKTKIEKLKFMKIKQFENERASLLDKIEEVRNKITMNPSTLQEMLNDVEQKHMLEKEEWLTEYQSQWKKDIELNNKHMQEIESIKKEIENTLKPELAEKKKLLTEKRNAYEAIKVKVKEKEEETTRLRDEVALKQKTNLETLEKIKELEEYIKDTELGMKELNEILIKEETVRRTLHNELQELRGNIRVYCRIRPALKNLENSDTSLINVNEFDDNSGVQSMEVTKIQNTAQVHEFKFDKIFDQQDTNVDVFKEVGQLVQSSLDGYNVCIFAYGQTGSGKTFTMLNPGDGIIPSTISHIFNWINKLKTKGWDYKVNCEFIEIYNENIVDLLRSDNNNKEDTSIGLKHEIRHDQETKTTTITNVTSCKLESEEMVEIILKKANKLRSTASTASNEHSSRSHSIFIIHLSGSNAKTGAHSYGTLNLVDLAGSERINVSQVVGDRLRETQNINKSLSCLGDVIHALGQPDSTKRHIPFRNSKLTYLLQYSLTGDSKTLMFVNISPSSSHINETLNSLRFASKVNSTRLVSRK
chain 2: B4 chain
modifications: HaloTag TMR ligand or HaloTag Alexa488 ligand covalently bound to the HaloTag (imaging experiments)
notes: also called Cik1–Kar3-Halo; Cik1–Halo–Kar3; source: if needed MonoS; not shown: HaloTag, N-terminal, kept

Test [1] concerns the target B5. In words: pull-down; 0.1–1 μM GST-tagged bait immobilised on glutathione sepharose; binding partner at a constant 0.5–1 μM; 25 mM Hepes pH 7.2, 250 mM NaCl, 1 mM MgCl2, 1 mM EGTA, 0.5 mM DTT, 0.05% NP-40; 1 hr at 4°C; SDS-PAGE, Coomassie. Conditions: both partners purified.
Test [2] concerns the target B5. Kind of test: SEC; analytical size exclusion chromatography of Cik1–Kar3 and Bim1 individually or in combination. Conditions: both partners purified. A general note: SEC sorts molecules by how far they enter the pores of the column.
Test [3] concerns the target T1, Halo-Kar3 (full-length Kar3 fused to a HaloTag) (S. cerevisiae (S288c), UniProt P17119 1-729, HaloTag TMR ligand (tetramethylrhodamine) or HaloTag Alexa488 ligand covalently bound to the HaloTag).
T1 construct: methods and legends say amino-terminal; also called Kar3-Halo; Kar3-HALO; not shown: HaloTag, N-terminal, kept
T1 sequence (looked up): B5 chain 1
In words: co-IP; two subunits co-overexpressed in S. cerevisiae; FLAG-tagged subunit bound to M2 anti-FLAG affinity agarose (lysis buffer 300 mM NaCl, washes 150 mM NaCl), HaloTag labelled on the resin, eluted with 3xFLAG peptide; Coomassie SDS-PAGE and fluorescence of the Halo-Kar3 subunit. Conditions: partners not purified.

The target of test [4] is T2, recombinant full-length Ndc80 complex (Ndc80p-6xHis/Nuf2p-EGFP and Spc24p/6xHis/Spc25p) (UniProt P40460 1-691; P33895 1-451; Q04477 1-213; P40014 1-221).
T2 construct: Ndc80p, budding yeast; Nuf2p, budding yeast; Spc24p, budding yeast; Spc25p, budding yeast; also called Ndc80-eGFP complex; Ndc80 kinetochore complex; source: recombinant; expression and purification as described previously (Lampert et al., 2013; Lampert et al., 2010); copies: + + +
T2 sequence (P40460 whole entry, chain 1 of 4): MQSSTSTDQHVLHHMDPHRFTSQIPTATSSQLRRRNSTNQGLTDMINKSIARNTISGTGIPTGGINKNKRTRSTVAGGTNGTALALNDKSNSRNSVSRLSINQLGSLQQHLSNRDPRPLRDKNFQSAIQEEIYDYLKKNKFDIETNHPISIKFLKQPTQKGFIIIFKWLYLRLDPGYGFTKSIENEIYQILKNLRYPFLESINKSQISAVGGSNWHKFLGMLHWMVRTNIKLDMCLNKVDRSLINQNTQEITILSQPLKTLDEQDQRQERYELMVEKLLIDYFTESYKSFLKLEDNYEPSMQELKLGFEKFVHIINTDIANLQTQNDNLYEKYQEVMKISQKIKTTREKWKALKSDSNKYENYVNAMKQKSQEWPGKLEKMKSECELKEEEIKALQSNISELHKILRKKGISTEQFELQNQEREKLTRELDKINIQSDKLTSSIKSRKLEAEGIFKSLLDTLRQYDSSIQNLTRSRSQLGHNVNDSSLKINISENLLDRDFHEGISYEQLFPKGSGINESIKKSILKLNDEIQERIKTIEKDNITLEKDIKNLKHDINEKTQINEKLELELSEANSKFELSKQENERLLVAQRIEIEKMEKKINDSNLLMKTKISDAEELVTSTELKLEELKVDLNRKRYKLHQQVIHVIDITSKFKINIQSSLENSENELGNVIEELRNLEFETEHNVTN
T2 sequence (P33895 whole entry, chain 2 of 4): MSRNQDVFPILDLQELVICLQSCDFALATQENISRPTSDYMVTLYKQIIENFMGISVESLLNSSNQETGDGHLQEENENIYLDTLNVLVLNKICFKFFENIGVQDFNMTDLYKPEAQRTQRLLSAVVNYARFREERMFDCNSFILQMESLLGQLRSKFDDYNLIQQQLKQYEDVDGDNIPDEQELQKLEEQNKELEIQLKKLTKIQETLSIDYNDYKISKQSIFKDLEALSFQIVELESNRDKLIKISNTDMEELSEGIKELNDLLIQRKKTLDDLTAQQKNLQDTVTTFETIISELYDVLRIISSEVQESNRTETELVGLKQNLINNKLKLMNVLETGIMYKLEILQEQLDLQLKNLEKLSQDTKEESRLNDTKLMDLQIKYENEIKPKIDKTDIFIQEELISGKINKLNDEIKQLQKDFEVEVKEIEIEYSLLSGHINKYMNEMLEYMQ
T2 sequence (Q04477 whole entry, chain 3 of 4): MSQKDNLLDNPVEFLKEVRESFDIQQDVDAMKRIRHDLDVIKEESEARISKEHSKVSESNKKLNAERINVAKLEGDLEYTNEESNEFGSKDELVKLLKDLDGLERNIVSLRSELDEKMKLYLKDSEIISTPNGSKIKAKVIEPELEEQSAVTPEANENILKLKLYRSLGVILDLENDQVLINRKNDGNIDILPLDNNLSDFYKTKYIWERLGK
T2 sequence (P40014 whole entry, chain 4 of 4): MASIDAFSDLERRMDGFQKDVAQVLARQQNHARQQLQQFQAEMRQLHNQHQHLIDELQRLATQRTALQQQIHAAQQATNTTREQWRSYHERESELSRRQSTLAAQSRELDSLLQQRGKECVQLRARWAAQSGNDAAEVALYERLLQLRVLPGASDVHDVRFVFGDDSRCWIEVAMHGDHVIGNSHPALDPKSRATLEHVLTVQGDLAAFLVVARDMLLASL
Kind of test: in vitro recruitment to microtubules (TIRF microscopy); bulk recruitment assay in the absence of nucleotide; TMR-labeled Kar3 motors and fluorescently labeled recombinant Ndc80 complex on surface-immobilised taxol-stabilized microtubules. Conditions: both partners purified.

For the molecule B1, the binding result in test [1] was “binds”.
With B2, the binding result in test [1] is “binds”.
With B3, in test [2], the binding result is “binds”.
For B4, the binding result in test [3] is “binds”.
As to B5, in test [4], the binding result is on record as “binds”.

(Values after PMC4338441, “Non-catalytic motor domains enable processive movement and functional diversification of the kinesin-14 Kar3” (eLife, 2015).)
